Data from US11160888B2, “PET tracer for imaging of neuroendocrine tumors” (priority 2011, dated 2021).

How the values were obtained:
[1] = in vivo
neuroendocrine tumor = assay: Comparative lesion detection, 64Cu-DOTATATE PET versus 111In-DTPA-octreotide SPECT; assay type: in vivo, human
Excerpt: (§1) Fourteen consecutively enrolled patients participated in this pilot study and underwent PET scanning with the new tracer on several time points. Patients were eligible in case of a histopathologically confirmed neuroendocrine tumor including positive immunostainings for chromogranin A and synaptophysin. They got offered study inclusion in case of referral to conventional SRI as part of routine follow-up. The maximum allowed time interval between both imaging modalities was 60 days. According to local clinical routine there was no need for interruption of biotherapy e.g. withdrawal of long- or short-time acting somatostatin analogs. However, patients must not have undergone major surgical interventions or systemic chemotherapy between conventional SRI and the PET scanning. The study group consisted of thirteen patients with gastroenteropancreatic neuroendocrine tumors (2 foregut, 6 midgut, 5 NET of unknown origin) and one patient with a known mutation in the multiple endocrine neoplasia I gene, who was diagnosed with a bronchogenic NET ten years ago. Age ranged from 40-80 years. Gender distribution: four women, ten men. Ten of the tumors were active functioning causing classical carcinoid syndromes mainly due to hepatic tumor load. One patient had shown clinical and biochemical manifestations of a Zollinger-Ellison syndrome at time of diagnosis. Twelve patients were in advanced disease state—TNM stage IV according to most recently both UICC/AJCC and ENETS classifications. Two patients had undergone respectively R0- and R1-resections, both without detectable disease so far. Patient recruiting and follow-up was carried out at the Department of Abdominal Surgery C. SRI was performed at the Department of Clinical Physiology, Nuclear Medicine and PET. Both departments are part of the Neuroendocrine Tumor Center of Excellence, Rigshospitalet, University of Copenhagen, Denmark. All patients had given written informed consent prior to inclusion. The study was approved by the Danish Medicines Agency and the Regional Research Ethics Committee.
(§2) PET-CT images were acquired on an integrated PET-CT Siemens Biograph True X, multi-slice. […] Imaging was performed 1h, 3h and 24h after injection.
^111In-pentreotide was intravenously applied with a target dose of 200 MBq. The scans consisted of whole body planar scintigraphy and SPECT-CT: Planar images were acquired at 24 h (anterior and posterior whole-body scan, scan speed 5 cm/min, 512*1.024 matrix) and at 48 h (15 min static planar image (256*256 matrix) of the abdomen using a large field of view medium-energy collimator (Precedence 16-slice scanner, Philips Healthcare; VG Hawkeye, GE Healthcare). SPECT (20 sec/step, 128 angles, 128*128 matrix) over the abdomen was obtained at 24 or 48 h, and included also the chest if a pathological focus was suspected from the whole body scan. A low-dose CT was used as anatomical guide and for attenuation correction. SPECT and CT were fused and reviewed on dedicated workstations (EBW, Philips Healthcare; eNTEGRA, GE Healthcare).
Planar whole-body scans/SPECT-CT and PET-CT images were evaluated by two separate teams consisting of both a nuclear medicine physician and a radiologist. Both teams were briefed about the patients past medical history. When abnormal findings only detected on co-registered CT had led the attention to a specific anatomical site, this particular region was revaluated using the molecular imaging data. Judged visually, there also had to be clearly detectable lesion to be accounted as true SRI positive as this was the main focus of interest of the present study. However, all lesions were documented, whether identified on CT images or by SRI. Findings were reported according to their respective anatomical site and if possible absolute numbers of lesions per organ system.

[2] = human, in vivo
Excerpt: No additional radiochemical purification step was required. […] The mean administered activity was 207 6 10 MBq (range, 193-232 MBq). […] This side effect was probably due to the somatostatin analog contained in the tracer.

somatostatin receptor = assay: 64Cu-DOTATATE PET biodistribution by SUV quantitation in neuroendocrine tumor patients
Excerpt: as §1, §2
(§3) Planar whole-body scans/SPECT-CT and PET-CT images were evaluated by two separate teams consisting of both a nuclear medicine physician and a radiologist. Both teams were briefed about the patients past medical history. When abnormal findings only detected on co-registered CT had led the attention to a specific anatomical site, this particular region was revaluated using the molecular imaging data. Judged visually, there also had to be clearly detectable lesion to be accounted as true SRI positive as this was the main focus of interest of the present study. However, all lesions were documented, whether identified on CT images or by SRI. Findings were reported according to their respective anatomical site and if possible absolute numbers of lesions per organ system. […] While still remaining blinded to the opposite SRI results, this disparity was tried to balance by additionally providing the team evaluating ^111In-pentreotide SPECT-CT scans with the findings from contrast enhanced diagnostic CT. Interpretation of conventional SRI was performed based on the knowledge of normal tissue accumulation of ^111In-pentreotide. Interpretation of the findings from the new PET method was carried out in a similar manner being aware of possible differences regarding residence times and excretion patterns of the new tracer. Confirmation of the pointed-out lesions was sought by routine follow-up including CT, MRI, conventional SRI and biopsy if possible. Newly detected lesions on co-registered CT imaging were accepted for confirmations as well. Semi-quantitative analysis of tissue radioactivity concentrations was performed by drawing volumes of interests (VOI) around detected lesions and encompassing normal tissues with appreciable tracer uptake on fused PET-CT images.

[3] = as above; details: both, human, pituitary, adrenals, spleen, iv, 200 MBq, total radioactivity
Excerpt: as §1, §2, §3

SMILES: CC(O)[C@H](NC(=O)[C@@H]1CSSC[C@H](NC(=O)[C@@H](Cc2ccccc2)NC(=O)CN2CCN(CC(=O)O)CCN(CC(=O)O)CCN(CC(=O)O)CC2)C(=O)N[C@@H](Cc2ccc(O)cc2)C(=O)N[C@H](Cc2c[nH]c3ccccc23)C(=O)N[C@@H](CCCCN)C(=O)N[C@@H](C(C)O)C(=O)N1)C(=O)O (stereo partly shown) [64Cu-DOTATATE, metal not drawn]
- absorbed dose [1]: 0.19 mGy/MBq
- estimated effective dose [1]: 6.3 mSv
- image quality compared with SPECT with 111In-DTPA-octreotide (neuroendocrine tumor; PET): considerably better image quality
- number of lymph node lesions revealed (neuroendocrine tumor; all 14 patients): 98
- Number and localization of lesions detected (neuroendocrine tumor; patient no. 2): Negative
- Number and localization of lesions detected (neuroendocrine tumor; patient no. 4): Negative
- Number and localization of lesions detected (neuroendocrine tumor; patient no. 5): Lymph nodes (>30)
- Number and localization of lesions detected (neuroendocrine tumor; patient no. 7): Pancreas (1), liver (>10) bones (>10)
- Number and localization of lesions detected (neuroendocrine tumor; patient no. 10): Lymph nodes (10)
- Number and localization of lesions detected (neuroendocrine tumor; patient no. 11): Liver (>10)
- adverse or clinically detectable pharmacologic effects [2]: no adverse or clinically detectable pharmacologic effects
- changes in vital signs [2]: No significant changes
- subjects who experienced self-limiting nausea [2]: 4 subjects
- activity distribution on late scan (somatostatin receptor; 24 h after injection): activity washout from most organs and lesions
- SUVmax range (somatostatin receptor; bone lesions, 1 h): 30-117
- SUVmax range (somatostatin receptor; bone lesions, 3 h): 27-111
- tracer accumulation category (high, moderate, faint) (somatostatin receptor; liver and spleen): Moderate to high
- SUVmax range (somatostatin receptor; liver lesions, 1 h): 20-81
- SUVmax range (somatostatin receptor; liver lesions, 3 h): 26-81
- SUVmax range (somatostatin receptor; lymph nodes (lesions), 1 h): 9-110
- SUVmax range (somatostatin receptor; lymph nodes (lesions), 3 h): 9-115
- tracer accumulation category (high, moderate, faint) (somatostatin receptor; pituitary, adrenal glands, kidneys, renal pelvis, urinary bladder): High
- tracer accumulation category (high, moderate, faint) (somatostatin receptor; salivary glands, in 12 of 14 patients): faint to moderate
- tracer accumulation category (high, moderate, faint) (somatostatin receptor; thyroid gland, in 2 patients): moderate
- SUV [3]: ≤ 20 SUV
